Results reported in US20250186614A1, “COMPACT DRUG RESPONSIVE DOMAINS FOR REGULATION OF FUNCTION/ABUNDANCE AND DELIVERY OF POLYPEPTIDE PAYLOADS” (OBSIDIAN THERAPEUTICS, INC., priority 2022, published 2025).
Like-named read-outs stand apart in the source and are kept apart here.

Assay: Example 4: dose response of FKBP constructs 160-255, Ec50, Ec90 and fold change (raw and normalized to mCherry)
Assay type: cell-based
Conditions: for FC (fold change): fold change during initial analysis
Experimental: Additional experiments were performed for constructs FKBP-160-292.

Molecule | FC (fold change) | EC90 (FKBP constructs 160-255, not normalized, read-out: EC90) [µM] | EC90 (normalized to mCherry, read-out: EC90 (Norm)) [µM]
FKBP-175 (protein, Description of sequence: Construct Name: FKBP-175; Mutation(s): Q72R Q84E A117W DRD M54A D50L T57I I136L) HCPIKSRKGAVLHAHYIGKLEDGTEFDSSLPRNQPFVFSLGTGEVIKGWDQGLLGMCEGEKRKLVIPSELGYGERGWPPKIPGGATLVFEVELLKLER | 7.25 | – | –
FKBP-179 (protein, Description of sequence: Construct Name: FKBP-179; Mutation(s): Q72R Q84E A117W DRD M54A H53G R72L) HCPIKSRKGDVLGAHYTGKLEDGTEFDSSLPLNQPFVFSLGTGEVIKGWDQGLLGMCEGEKRKLVIPSELGYGERGWPPKIPGGATLVFEVELLKIER | 3.1 | – | –
FKBP-183 (protein, Description of sequence: Construct Name: FKBP-183; Mutation(s): Q72R Q84E A117W V85R DRD M54A L133G) HCPIKSRKGDVLHAHYTGKLEDGTEFDSSLPRNQPFVFSLGTGERIKGWDQGLLGMCEGEKRKLVIPSELGYGERGWPPKIPGGATLVFEVEGLKIER | 4 | – | –
FKBP-180 (protein, Description of sequence: Construct Name: FKBP-180; Mutation(s): Q72R Q84E A117W DRD M54A F129T) HCPIKSRKGDVLHAHYTGKLEDGTEFDSSLPRNQPFVFSLGTGEVIKGWDQGLLGMCEGEKRKLVIPSELGYGERGWPPKIPGGATLVTEVELLKIER | 1.2 | – | –
FKBP-176 (protein, Description of sequence: Construct Name: FKBP-176; Mutation(s): Q72R Q84E A117W DRD M54A G116E) HCPIKSRKGDVLHAHYTGKLEDGTEFDSSLPRNQPFVFSLGTGEVIKGWDQGLLGMCEGEKRKLVIPSELGYGEREWPPKIPGGATLVFEVELLKIER | 6.8 | – | –
FKBP-190 (protein, Description of sequence: Construct Name: FKBP-190; Mutation(s): Q72R Q84E A117W V85R DRD M54A F129T) HCPIKSRKGDVLHAHYTGKLEDGTEFDSSLPRNQPFVFSLGTGERIKGWDQGLLGMCEGEKRKLVIPSELGYGERGWPPKIPGGATLVTEVELLKIER | 0.9 | – | –
FKBP-160 (protein, Description of sequence: Construct Name: FKBP-160; Mutation(s): Q72R Q84E A117W V85R DRD M54A) HCPIKSRKGDVLHAHYTGKLEDGTEFDSSLPRNQPFVFSLGTGERIKGWDQGLLGMCEGEKRKLVIPSELGYGERGWPPKIPGGATLVFEVELLKIER | 25.7 | 0.0422 | 0.0482
FKBP-184 (protein, Description of sequence: Construct Name: FKBP-184; Mutation(s): Q72R Q84E A117W V85R DRD M54A S36G V131G) HCPIKGRKGDVLHAHYTGKLEDGTEFDSSLPRNQPFVFSLGTGERIKGWDQGLLGMCEGEKRKLVIPSELGYGERGWPPKIPGGATLVFEGELLKIER | 1 | – | –
